Laboratory results as given in the DeepSol protein solubility set.

Experiment: soluble on expression in E. coli; label from the status in PepcDB or PDB records
For “MSLRPNHAAQSLRSRTSKTIGCMFSDVANPLYARAFRALEEHFRREGYMLLLANGLNDAEREIDIIQTFQLRGMDGVILAPGNERHPGVLDAVRRLSMPAVIYDRDLAVDADAVLFDHVAGVKAAIHHLVELGHTRIALALWQVKSRPVRRRIEGYKAAFKAAGLPVPDLILQEPTPTSSAFDDVTRLLQLPDPPTAFLAQGTHTLTSTLRAIAKQGLRVPEDVSVIGIGDTDFAQTYDPPLTVLRTPTDEVAAHAVEMLLSRLAAKGDASLSPRKALIQFDLILRESCAPVAREGHHHHHH”, the “soluble on expression in E. coli” value was “soluble”. For “AGKTLYDKLWEAHEVKRRDDGSSLIYIDRHIIHEVTSPQAFEGLRLANRKPWRIDANIATPDHNVPTTPERKGGIEAIVDQVSRLQVQTLDENCDEYGIVEFKMNDERQGIVHVISPEQGATLPGMTVVCGDSHTSTHGAFGALAHGIGTSEVEHVLATQCLVAKKMKN”, the “soluble on expression in E. coli” value was “not soluble”. With “MNKTIIAERFSKAISTYPREANVQRQIANKMIRLLQKHIPSPCPKVIEFGCGTGIYSRMLLRTLRPEELLLNDLCPEMRYCCEDLLREKQVSFLSGDAETISFPDKSTLITSCSALQWFDSPEEFFKRCNTLLHSQGYFAFSTFGKKNMKEIRELTGKGLPYRSREELEAALSLHFDILYSEEELIPLSFEDPMKVLYHLKQTGVNGLSAQSSLYPKHEKQTWTRRDLQHFCERYTQEFTQGTSVSLTYHPIYIIAKKKKV” the “soluble on expression in E. coli” value was “soluble”. In the case of “MGRGSFTQIDTPDQVTERMRALLVKLESPAVTDLTATFSEPGIDVTPARLPDLYRGEPLTLSARMGQARGTLTLTGRIGGQPWQTQLHLDAAQDGTGIGKLWARAKIAEAETARLTGGLTAEAADAAILRLALDHGLTTRLTSLVAVDATPRRPAGMRLASTELPLNLPAGWDFETVFGTQDELEHHHHHH”, the “soluble on expression in E. coli” value is reported as “not soluble”. With “MSKATYKERAATHPSPVAAKLFNIMHEKQTNLCASLDVRTTKELLELVEALGPKICLLKTHVDILTDFSMEGTVKPLKALSAKYNFLLFENRKFADIGNTVKLQYSAGVYRIAEWADITNAHGVVGPGIVSGLKQAAEEVTKEPRGLLMLAELSCKGSLATGEYTKGTVDIAKSDKDFVIGFIAQRDMGGRDEGYDWLIMTPGVGLDDKGDALGQQYRTVDDVVSTGSDIIIVGRGLFAKGRDAKVEGERYRKAGWEAYLRRCGQQN” the “soluble on expression in E. coli” value was “soluble”. For “MDYCCVGRNNNDSVPREVTLLRVKTLMKMANHPRPGDIIQESLDELNVSLREFARAMEIAPSTASRLLTGKAALTPEMAIKLSVVIGSSPQMWLNLQNAWSLAEAEKTVVVSRLRRLVTQ”, the “soluble on expression in E. coli” value was “not soluble”. For “MHHHHHHGSTSLYKKAGSETLYIQGMAEFPASLLILNGKSTDNLPLREAIMLLREEGMTIHVRVTWEKGDAARYVEEARKFGVATVIAGGGDGTINEVSTALIQCEGDDIPALGILPLGTANDFATSVGIPEALDKALKLAIAGDAIAIDMAQVNKQTCFINMATGGFGTRITTETPEKLKAALGSVSYIIHGLMRMDTLQPDRCEIRGENFHWQGDALVIGIGNGRQAGGGQQLCPNALINDGLLQLRIFTGDEILPALVSTLKSDEDNPNIIEGASSWFDIQAPHDITFNLDGEPLSGQNFHIEILPAALRCRLPPDCPLLRSTHHHHHH”, the “soluble on expression in E. coli” value was “soluble”. For “MTDIGAPVTVQVAVDPPYPVVIGTGLLDELEDLLADRHKVAVVHQPGLAETAEEIRKRLAGKGVDAHRIEIPDAEAGKDLPVVGFIWEVLGRIGIGRKDALVSLGGGAATDVAGFAAATWLRGVSIVHLPTTLLGMVDAAVGGKTGINTDAGKNLVGAFHQPLAVLVDLATLQTLPRDEMICGMAEVVKAGFIADPVILDLIEADPQAALDPAGDVLPELIRRAITVKAEVVAADEKESELREILNYGHTLGHAIERRERYRWRHGAAVSVGLVFAAELARLAGRLDDATAQRHRTILSSLGLPVSYDPDALPQLLEIMAGDKKTRAGVLRFVVLDGLAKPGRMVGPDPGLLVTAYAGVCAP”, the “soluble on expression in E. coli” value was “not soluble”. With “MAISIKTPEDIEKMRVAGRLAAEVLEMIEPYVKPGVSTGELDRICNDYIVNEQHAVSACLGYHGYPKSVCISINEVVCHGIPDDAKLLKDGDIVNIDVTVIKDGFHGDTSKMFIVGKPTIMGERLCRITQESLYLALRMVKPGINLREIGAAIQKFVEAEGFSVVREYCGHGIGQGFHEEPQVLHYDSRETNVVLKPGMTFTIEPMVNAGKKEIRTMKDGWTVKTKDRSLSAQYEHTIVVTDNGCEILTLRKDDTIPAIISHDELVPRGSLEHHHHHH” the “soluble on expression in E. coli” value was “soluble”. With “SAYIHIPFCEHICHYCDFNKYFIQSQPVDEYLNALEQEMINTIAKTGQPDLKTIFIGGGTPTSLSEEQLKKLMDMINRVLKPSSDLSEFAVDANPDDLSAEKLKILKEAGVNRLSFGVQTFEDDLLEKIGRVHKQKDVFTSFERAREIGFENISLDLMFGLPGQTLKHLEHSINTALSLDAEHYSVYSLIVEPKTVFYNLMQKGRLHLPPQEQEAEMYEIVMSKMEAHGIHQYEISNFAKAGMESKHNLTYWSNEQYFGFGAGAHGYIGGTRTVNVGPVKHYIDLIAEKGFPYRDTHEVTTEEQIEEEMFLGLRKTAGVSKKRFAEKYGRSLDGLFPSVLKDLAEKGLIHNSES” the “soluble on expression in E. coli” value was “not soluble”. In the case of “MRWKKINITINNVEMILVAAIIIDVPPVVDLCVKTMIHNINSTNCIRMFNFSKRYGIKKLYNASMSEIINNITAVTSDPEFGKLSKDELTTILSHENVNVNHEDVTL”, the “soluble on expression in E. coli” value is reported as “not soluble”. In the case of “MSKTAAITIDTPGADDFEPHRRHLYGLAYRMLGSWSEAEDIVQETWLRWREIDPATLDNARAFLSRIATRLCLDVLKSARVRRQVYVGPWLPEPLPDAQAYAGAAPGEIAHDVSVALMLALERLSASERAAFLLHDVFDVPFAEIAGTLGRTEAGCRQLAARARNRVRESRPRFAVEESEGIRLARAFIDAAQHGDVDVLRQLLADDAVLHSDGGGKKLAFMRPILGRANIVRAFAGLARKGQSDLSSVRIVQLNGMPAIYGIERDGLPRTISLGVCGGRIVRVYIMRNPDKLAHLARFTG”, the “soluble on expression in E. coli” value is reported as “not soluble”. In the case of “MTMLLDGGPQFPGLGVGSFGAPRHHEMPNREPAGMGLNPFGDSTHAAAAAAAAAAFKLSPAAAHDLSSGQSSAFTPQGSGYANALGHHHHHHHHHHHTSQVPSYGGAASAAFNSTREFLFRQRSSGLSEAASGGGQHGLFAGSASSLHAPAGIPEPPSYLLFPGLHEQGAGHPSPTGHVDNNQVHLGLRGELFGRADPYRPVASPRTDPYAAGAQFPNYSPMNMNMGVNVAAHHGPGAFFRYMRQPIKQELSCKWIDEAQLSRPKKSCDRTFSTMHELVTHVTMEHVGGPEQNNHVCYWEECPREGKSFKAKYKLVNHIRVHTGEKPFPCPFPGCGKIFARSENLKIHKRTHTGEKPFKCEFEGCDRRFANSSDRKKHMHVHTSDKPYICKVCDKSYTHPSSLRKHMKVHESQGSDSSPAASSGYESSTPPAIASANSKDTTKTPSAVQTSTSHNPGLPPNFNEWYV”, the “soluble on expression in E. coli” value is reported as “soluble”. In the case of “MNRCILLALLPLISAIPVAVNIDDQDAVNLGAYDRARFDLVESFHPLQPASAVTNDQIAEVRAKAAGVRQNEASISIDLPTQMLSGSSGRIPERLAFGEWTEWTSWSMCQNGERSRVRTCVSRKPALRVVCHGDAIEIEKCYVDAGEGHIPVAADPWSIEREISGDFA”, the “soluble on expression in E. coli” value is reported as “not soluble”. In the case of “MGSSHHHHHHSSGLVPRGSHMFLTRRDPPLSSFWTKVQYQRLKELNASGEQLEMGFSDALSRDRAFQGIEHQLMSQGKRHLEQLRTVKHRPALLELEEKLAKALHQQGFVQVVTPTIITKSALAKMTIGEDHPLFSQVFWLDGKKCLRPMLAPNLYTLWRELERLWDKPIRIFEIGTCYRKESQGAQHLNEFTMLNLTELGTPLEERHQRLEDMARWVLEAAGIREFELVTESSVVYGDTVDVMKGDLELASGAMGPHFLDEKWEIFDPWVGLGFGLERLLMIREGTQHVQSMARSLSYLDGVRLNIN”, the “soluble on expression in E. coli” value is reported as “soluble”. With “MSLSEFLTKNEEKIEKIVKFHRSFDEMSQTQRQAWLEEMGDINIEHFFKANQRVFDEDGPRERSIPRRDFFLDVIKNRVKSDPLLQPKGHPVTNYLQENIHIRKLCEKITDTFCVEEIASYDAALNLLYELSKIHTHYLRKEDQLFPYLEKHNFTYPSTGMWKFQDEIRANLKMVIKAFEKNELNKEMQTLMRDVVKDIFDMTTREEKMLLPTSVKLLSNEEWIKMRKEEQEIGYVFIQSPPMWPEDESHKPDMASSLGSIFLQEGSLSQEQLNLFFSHLPFDVTFVDENDRVAFFNKGSERTFLRSAGVIGREVKFCHPPKSVDAVLKILEAFKAGTKESAEFWITFGGRLIHIRYFALRDSEKNYKGVVEITQDITDIKNIEGERRLLDWEEGHHHHHH” the “soluble on expression in E. coli” value was “soluble”. In the case of “VARCQVPDCEADISELKGYHKRHRVCLRCATASFVVLDGENKRYCQQCGKFHLLPDFDEGKRSCRRKLERHNNRRKRKPVDKGGVA”, the “soluble on expression in E. coli” value is reported as “soluble”. With “GSRRASVGSHEVEKSGLLNMTKIAQGGRKLRKNWGPSWVVLTGNSLVFYREPPPTAPSSGWGPAGSRPESSVDLRGAALAHGRHLSSRRNVLHIRTIPGHEFLLQSDHETELRAWHRALRTVIERLVRW” the “soluble on expression in E. coli” value was “soluble”. With “MRLERVLEEARAKGYPIEDNGLGNLWVVLPRERFKEEMAHYKAMGFNFLADIVGLDYLTYPDPRPERFAVVYELVSLPGWKDGDGSRFFVRVYVPEEDPRLPTVTDLWGSANFLEREVYDLFGIVFEGHPDLRKILTPEDLEGHPLRKDYPLGETPTLFREGRYIIPAEFRAALTGKDPGLTFYKGGSRKGYRSLWADLKKAREVKG” the “soluble on expression in E. coli” value was “soluble”. In the case of “MGSDKIHHHHHHMQKKGNKYGTHRVLAPQGVLPQPAEKVDNNMDEIYDNEILIDVKTLNIDSASFTQIHEQAGGDKAKIAEIMLGIVAKQGKHRNPVTGSGGMLLGVVEKIGDALKDKIDLKVGDKIATLVSLSLTPLRIDKIKEIRPDVDQVDIEGKAILFESGIYAKIPNDLPEKLALSALDVAGAPAQTAKLVKPGDTVLIIGAGGKSGMLCCYEAKKRAGVTGKVIGLCHSQKSTDRLKALGFCDHVFSADATKPVPVMEEIEKLTNGEMCDVTINNVNITDTEMTSILCTKNDGIVYFFSMATSFTKAALGAEGVGSDVTMIVGNGYTKGHAEITLQELRECEALRKVFTELYA”, the “soluble on expression in E. coli” value is reported as “not soluble”. In the case of “SKEHQAVSLEAARQSLVLLKNETNLLPLSKSIRSIAVIGPNANEQTQLICRYGPANAPIKTVYQGIKELLPHTEVIYKKGCDIIDPHFPESEILDFPKTAEEVQLMEEAIRAAKQAEVVVMVLGGNELTVREDRSRTSLNLPGRQEELLKAVCATGKPIILVMLDGRASSINYAAAHIPAILHAWFPGEFCGQAVAEALFGDYNPGGRLAVTFPKSVGQIPFAFPFKPGSDESSSTSVYGALYPFGHGLSYTTF”, the “soluble on expression in E. coli” value is reported as “not soluble”. With “MAHHHHHHMRTSDARPASPSAAPPQSRKYQLSQRPLQLPRPPPRRFLEHPHHNLLPCTSDVKRLMENEYELRRVVRDVLLERLGMEGSHVEPPLRLCTEDSAEVTASPFCAVASVSTPLSSAGESAKQPRCAHDTGLRSMRAPDVDDIAGSSQPTWLMPWLQRLRMEQEKQLRQMRKMLVVARRSVSPDSSDVDARASSLMKTTGEARDDTRTAEPPHALLWQRHRCLPPADRPEAVEACSTLRAMQETMQAQSTQLARLEELLQETLIPDTARRTSHGAGALPLPSPSVHQVEAAAAARANHTGHRSRSNDTVLPTLTHTAASPKKNVRRAVPSRSGCSADVPAAAAAAAAATSSRVSTCVSAPSPPPRLHPEKRTLCGGVH” the “soluble on expression in E. coli” value was “not soluble”.
